Source: patent US20220178930A1
Where “and” joins values, the source holds several entries; their conditions need not be identical. Identical values can stand only once.

Tests used:
Galectin-9 (human) [1] = molecular target: Galectin-9 (human) (UniProt O00182); test: flow cytometry, CD3+ T cells, S3 organoid fraction, CRC
Galectin-9 (human) [2] = molecular target: Galectin-9 (human) (UniProt O00182); test: flow cytometry, CD3+ T cells, S3 organoid fraction, HCC
Galectin-9 (human) [3] = molecular target: Galectin-9 (human) (UniProt O00182); test: flow cytometry, CD3+ T cells, S3 organoid fraction, PDA
Galectin-9 (human) [4] = molecular target: Galectin-9 (human) (UniProt O00182); test: flow cytometry, CD3+ T cells, S2 single cell fraction, CRC
Galectin-9 (human) [5] = molecular target: Galectin-9 (human) (UniProt O00182); test: flow cytometry, CD3+ T cells, S2 single cell fraction, PDA
Galectin-9 (human) [6] = molecular target: Galectin-9 (human) (UniProt O00182); test: flow cytometry, EPCAM+ tumor cells, S3 organoid fraction, CRC
Galectin-9 (human) [7] = molecular target: Galectin-9 (human) (UniProt O00182); test: flow cytometry, EPCAM+ tumor cells, S3 organoid fraction, HCC
Galectin-9 (human) [8] = molecular target: Galectin-9 (human) (UniProt O00182); test: flow cytometry, EPCAM+ tumor cells, S3 organoid fraction, PDA
Galectin-9 (human) [9] = molecular target: Galectin-9 (human) (UniProt O00182); test: flow cytometry, CD11b+ myeloid cells, S3 organoid fraction, CRC
Galectin-9 (human) [10] = molecular target: Galectin-9 (human) (UniProt O00182); test: flow cytometry, CD11b+ myeloid cells, S3 organoid fraction, HCC
Galectin-9 (human) [11] = molecular target: Galectin-9 (human) (UniProt O00182); test: flow cytometry, CD11b+ myeloid cells, S3 organoid fraction, PDA
Galectin-9 (human) [12] = molecular target: Galectin-9 (human) (UniProt O00182); test: flow cytometry, EPCAM+ tumor cells, S2 single cell fraction, CRC
Galectin-9 (human) [13] = molecular target: Galectin-9 (human) (UniProt O00182); test: flow cytometry, EPCAM+ tumor cells, S2 single cell fraction, PDA
Galectin-9 (human) [14] = molecular target: Galectin-9 (human) (UniProt O00182); test: flow cytometry, CD3+ T cells, S3 organoid fraction, Pancreas NET
Galectin-9 (human) [15] = molecular target: Galectin-9 (human) (UniProt O00182); test: flow cytometry, CD11b+ myeloid cells, S2 single cell fraction, CRC
Galectin-9 (human) [16] = molecular target: Galectin-9 (human) (UniProt O00182); test: flow cytometry, CD11b+ myeloid cells, S2 single cell fraction, PDA
Galectin-9 (human) [17] = molecular target: Galectin-9 (human) (UniProt O00182); test: flow cytometry, EPCAM+ tumor cells, S3 organoid fraction, Liver NET
Galectin-9 (human) [18] = molecular target: Galectin-9 (human) (UniProt O00182); test: flow cytometry, CD3+ T cells, S2 single cell fraction, Pancreas NET
Galectin-9 (human) [19] = molecular target: Galectin-9 (human) (UniProt O00182); test: flow cytometry, EPCAM+ tumor cells, S2 single cell fraction, Liver NET
Galectin-9 (human) [20] = molecular target: Galectin-9 (human) (UniProt O00182); test: flow cytometry, EPCAM+ tumor cells, S3 organoid fraction, Pancreas NET
Galectin-9 (human) [21] = molecular target: Galectin-9 (human) (UniProt O00182); test: flow cytometry, CD11b+ myeloid cells, S3 organoid fraction, Pancreas NET
Galectin-9 (human) [22] = molecular target: Galectin-9 (human) (UniProt O00182); test: flow cytometry, CD3+ T cells, S3 organoid fraction, CRC liver metastasis
Galectin-9 (human) [23] = molecular target: Galectin-9 (human) (UniProt O00182); test: flow cytometry, EPCAM+ tumor cells, S2 single cell fraction, Pancreas NET
Galectin-9 (human) [24] = molecular target: Galectin-9 (human) (UniProt O00182); test: flow cytometry, CD11b+ myeloid cells, S2 single cell fraction, Pancreas NET
Galectin-9 (human) [25] = molecular target: Galectin-9 (human) (UniProt O00182); test: flow cytometry, CD3+ T cells, S2 single cell fraction, CRC liver metastasis
Galectin-9 (human) [26] = molecular target: Galectin-9 (human) (UniProt O00182); test: flow cytometry, EPCAM+ tumor cells, S3 organoid fraction, CRC liver metastasis
Galectin-9 (human) [27] = molecular target: Galectin-9 (human) (UniProt O00182); test: flow cytometry, CD11b+ myeloid cells, S3 organoid fraction, CRC liver metastasis
Galectin-9 (human) [28] = molecular target: Galectin-9 (human) (UniProt O00182); test: flow cytometry, EPCAM+ tumor cells, S2 single cell fraction, CRC liver metastasis
Galectin-9 (human) [29] = molecular target: Galectin-9 (human) (UniProt O00182); test: flow cytometry, CD11b+ myeloid cells, S2 single cell fraction, CRC liver metastasis

Chain of Galectin-9 (human) (O00182 whole entry): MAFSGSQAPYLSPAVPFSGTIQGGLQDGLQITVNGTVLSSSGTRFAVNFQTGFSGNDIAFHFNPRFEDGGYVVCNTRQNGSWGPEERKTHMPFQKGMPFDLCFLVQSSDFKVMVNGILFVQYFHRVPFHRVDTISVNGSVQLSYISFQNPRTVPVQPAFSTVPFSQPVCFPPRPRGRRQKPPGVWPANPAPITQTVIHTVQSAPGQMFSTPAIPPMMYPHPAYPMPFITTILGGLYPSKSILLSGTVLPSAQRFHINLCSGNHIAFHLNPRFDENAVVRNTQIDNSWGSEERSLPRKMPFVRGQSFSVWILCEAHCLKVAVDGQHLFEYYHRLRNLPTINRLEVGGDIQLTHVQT

% Gal9 expression based on staining (Galectin-9 (human) [1]): 0% and 15.3% and 0.87%
% Gal9 expression based on staining (Galectin-9 (human) [2]): 1.14%
% Gal9 expression based on staining (Galectin-9 (human) [3]): 0% and 0.59%
% Gal9 expression based on staining (Galectin-9 (human) [4]): 2.5% and 1.59%
% Gal9 expression based on staining (Galectin-9 (human) [5]): 0% and 0.52%
% Gal9 expression based on staining (Galectin-9 (human) [6]): 0.21% and 2.27% and 0.55%
% Gal9 expression based on staining (Galectin-9 (human) [7]): 5.84%
% Gal9 expression based on staining (Galectin-9 (human) [8]): 0.17% and 0.94%
% Gal9 expression based on staining (Galectin-9 (human) [9]): 0.38% and 11.8% and 2.4%
% Gal9 expression based on staining (Galectin-9 (human) [10]): 1.72%
% Gal9 expression based on staining (Galectin-9 (human) [11]): 3.83% and 0.54%
% Gal9 expression based on staining (Galectin-9 (human) [12]): 0.64% and 3.97%
% Gal9 expression based on staining (Galectin-9 (human) [13]): 0.15% and 0.88%
% Gal9 expression based on staining (Galectin-9 (human) [14]): 4.96%
% Gal9 expression based on staining (Galectin-9 (human) [15]): 2.86% and 5.84%
% Gal9 expression based on staining (Galectin-9 (human) [16]): 1.19% and 0%
% Gal9 expression based on staining (Galectin-9 (human) [17]): 0.02%
% Gal9 expression based on staining (Galectin-9 (human) [18]): 32.2%
% Gal9 expression based on staining (Galectin-9 (human) [19]): 0.45%
% Gal9 expression based on staining (Galectin-9 (human) [20]): 4.19%
% Gal9 expression based on staining (Galectin-9 (human) [21]): 1.87%
% Gal9 expression based on staining (Galectin-9 (human) [22]): 0%
% Gal9 expression based on staining (Galectin-9 (human) [23]): 2.41%
% Gal9 expression based on staining (Galectin-9 (human) [24]): 16.2%
% Gal9 expression based on staining (Galectin-9 (human) [25]): 0.56%
% Gal9 expression based on staining (Galectin-9 (human) [26]): 0.06%
% Gal9 expression based on staining (Galectin-9 (human) [27]): 1.5%
% Gal9 expression based on staining (Galectin-9 (human) [28]): 0.15%
% Gal9 expression based on staining (Galectin-9 (human) [29]): 1.2%
Substance: Fab isotype
